Results taken from the Human Domainome abundance scans (Beltran et al. 2025).
± gives the uncertainty stated by the source.

B1: Homeobox expressed in ES cells 1, residues 110 to 165; numbered along this chain, Q9UBX0 (parent)
chain: RPRTAFTQNQIEVLENVFRVNCYPGIDIREDLAQKLNLEEDRIQIWFQNRRAKLKR

Variants of: B1
Assay: abundance fitness (aPCA) (normalised: wild type 0, dead -1); higher = more abundant; growth selection in yeast, the domain comes from the species named
Settings: Homo sapiens

Abundance fitness of substitutions, site by site:
Q34: I -0.106 ± 0.4 | D -0.234 ± 0.17 | N -0.216 ± 0.26 | T 0.046 ± 0.064 | R 0.135 ± 0.095
E30: L 0.134 ± 0.083 | F 0.048 ± 0.17 | N 0.514 ± 0.16 | S -0.209 ± 0.15 | M -0.189 ± 0.23 | K 0.169 ± 0.28 | H 0.234 ± 0.15 | W -0.002 ± 0.2 | D -0.18 ± 0.18 | R 0.196 ± 0.1 | A -0.023 ± 0.1 | V -0.186 ± 0.073 | I 0.099 ± 0.12 | P -0.781 ± 0.41 | G -0.131 ± 0.083 | Y -0.544 ± 0.33 | C -0.063 ± 0.091
E15: H -0.463 ± 0.15 | P -0.499 ± 0.34 | D -0.621 ± 0.39 | Y -0.528 ± 0.16 | M -0.196 ± 0.12 | R -0.503 ± 0.12 | A -0.832 ± 0.4 | S -0.854 ± 0.14 | L -0.725 ± 0.088 | V -0.81 ± 0.16 | T -0.741 ± 0.34 | C -0.567 ± 0.26 | G -0.686 ± 0.093
D27: H -0.503 ± 0.38 | S 0.233 ± 0.091 | M -0.134 ± 0.1 | A -0.259 ± 0.15 | I -0.484 ± 0.43 | N 0.034 ± 0.38 | R 0.137 ± 0.1 | Q 0.203 ± 0.23 | E 0.075 ± 0.091 | L -0.271 ± 0.14 | C -0.155 ± 0.081 | V -0.314 ± 0.086 | W -0.526 ± 0.18 | G -0.02 ± 0.07 | P -0.128 ± 0.22 | K -0.185 ± 0.16
V20: C -0.218 ± 0.14 | Y -0.667 ± 0.41 | F 0.333 ± 0.13 | K 0.106 ± 0.24 | S 0.072 ± 0.062 | D 0.136 ± 0.084 | L -0.186 ± 0.094 | W -0.436 ± 0.39 | I 0.077 ± 0.096 | T -0.03 ± 0.072 | E -0.1 ± 0.17 | M -0.091 ± 0.29 | A -0.052 ± 0.17 | H -0.021 ± 0.18 | R -0.118 ± 0.11 | G -0.157 ± 0.089 | N 0.208 ± 0.081
N21: S -0.454 ± 0.14 | M -0.058 ± 0.18 | V -0.578 ± 0.12 | L -0.807 ± 0.36 | Q -0.158 ± 0.31 | I -0.522 ± 0.38 | G -0.262 ± 0.21 | C -0.69 ± 0.18 | A -1.03 ± 0.32 | D -0.412 ± 0.31 | W -0.608 ± 0.46 | R -0.948 ± 0.19 | F -0.868 ± 0.41 | Y -0.592 ± 0.22
V13: T -0.141 ± 0.18 | S -0.224 ± 0.12 | K -0.458 ± 0.22 | N -0.278 ± 0.29 | A -0.272 ± 0.23 | C -0.149 ± 0.24 | L -0.543 ± 0.2 | F -0.378 ± 0.28 | I 0.467 ± 0.18 | D -0.757 ± 0.42 | M 0.618 ± 0.2 | Y -0.757 ± 0.47 | Q -0.184 ± 0.12 | P -0.596 ± 0.14 | H 0.023 ± 0.3
F18: R -0.71 ± 0.089 | C -0.625 ± 0.47 | S -0.819 ± 0.14 | L -0.459 ± 0.2 | G -0.812 ± 0.14 | M -1.06 ± 0.36 | Y -0.083 ± 0.14 | I -0.328 ± 0.15 | D -0.701 ± 0.28 | K -0.845 ± 0.13 | T -0.82 ± 0.24 | Q -0.891 ± 0.38
D31: K 0.679 ± 0.15 | A -0.106 ± 0.14 | P -0.675 ± 0.36 | L -0.411 ± 0.087 | F 0.535 ± 0.19 | T -0.568 ± 0.41 | Y -0.158 ± 0.21 | I 0.221 ± 0.4 | M -0.32 ± 0.25 | C -0.468 ± 0.16 | R -0.032 ± 0.056 | V -0.425 ± 0.09 | N 0.066 ± 0.15 | W -0.532 ± 0.2
C22: S 0.187 ± 0.11 | T -0.013 ± 0.17 | V -0.392 ± 0.15 | E 0.227 ± 0.18 | I 0.076 ± 0.11 | M 0.425 ± 0.15 | G -0.182 ± 0.12 | Y 0.009 ± 0.1 | P 0.079 ± 0.13 | R 0.054 ± 0.064 | L -0.134 ± 0.16 | D -0.021 ± 0.21 | A -0.061 ± 0.13 | Q 0.156 ± 0.096 | F -0.467 ± 0.1 | K -0.328 ± 0.25 | W -0.066 ± 0.21
P24: E -0.644 ± 0.34 | Y -0.366 ± 0.37 | Q -0.314 ± 0.23 | R -0.995 ± 0.23 | G -0.641 ± 0.17 | K 0.273 ± 0.27 | I -0.662 ± 0.23 | L -0.392 ± 0.25 | D -0.606 ± 0.39 | W -0.896 ± 0.17 | M -0.815 ± 0.14 | V -0.793 ± 0.15 | C -1.09 ± 0.24
G25: H 0.151 ± 0.25 | Y -0.741 ± 0.1 | W -0.755 ± 0.11 | L -0.874 ± 0.28 | C -0.282 ± 0.25 | K 0.11 ± 0.19 | V -1.11 ± 0.38 | A -0.079 ± 0.16 | M -0.688 ± 0.21 | Q -0.744 ± 0.4 | T -0.027 ± 0.12 | E -0.065 ± 0.14 | P 0.187 ± 0.13 | S -0.106 ± 0.16
